# Results from PMC3025356, “Mechanism of the Ca^2+-Dependent Interaction between S100A4 and Tail Fragments of Nonmuscle Myosin Heavy Chain IIA” (Journal of Molecular Biology, 2011).
# “And” between values parts separate entries of the source, which are not always exact repeats. Identical values can stand only once.
# B1: M200: His-tagged human NM-MHC IIA residues Q1761-E1960, V1913I substitution (protein, UniProt P35579 1761-1960, looked up, variant V1913I)
# chain: QINTDLNLERSHAQKNENARQQLERQNKELKVKLQEMEGTVKSKYKASITALEAKIAQLEEQLDNETKERQAACKQVRRTEKKLKDVLLQVDDERRNAEQYKDQADKASTRLKQLKRQLEEAEEEAQRANASRRKLQRELEDATETADAMNREISSLKNKLRRGDLPFVVPRRMARKGAGDGSDEEVDGKADGAEAKPAE
# modifications: His tag
# notes: His-tagged human NM-MHC IIA residues Q1761-E1960, V1913I substitution
# Assays:
# [1] = tested on: M200 filamentous bundles; assay: Electron microscopy of myosin IIA tail fragments; design: species or system human
# Experimental: Fig. 8 Characterisation of myosin IIA coiled-coil tail fragments. Metal-shadowed electron micrographs of (a) M200 and (b) M111 deposited from 0.5 M ammonium acetate. Scale bar represents 50 nm. (c and d) Electron micrographs of a negatively stained M200 tail fragment. Fields of M200 (c) in the absence and (d) in the presence of a 2-fold molar excess of S100A4, respectively. Arrows point to individual strands emerging from images of filamentous bundles. The samples were prepared in 0.1 M sodium acetate buffer, where M200 formed large filamentous aggregates but were solubilised in the presence of S100A4. Scale bar represents 200 nm (see Materials and Methods for details).
# For negative staining, the stock solution of the M200 tail fragment was diluted with a solution consisting of 0.1 M Na-acetate, 3 mM MgCl2, 0.1 mM CaCl2, 10 mM imidazole, and 5 mM NaH2PO4 (pH 7.0), with or without 14 μM S100A4, to give a final concentration of 7 μM M200. Following dilution, 5 μl of the mixture was applied to a grid with a thin carbon film supported by a holey carbon film, and the grid was negatively stained using 1% uranyl acetate. For metal shadowing, the stock solutions of the M200 and M111 tail fragments were diluted with 0.5 M ammonium acetate solution to give a final concentration of 5 μM protein. This was mixed with an equal volume of glycerol, and the resulting mixture was sprayed onto freshly cleaved mica then rotary shadowed with platinum at an angle of 6°.[46] Grids were examined in a Philips CM120 electron microscope (FEI, Hillsboro, OR) operated at 80 kV. Images were recorded on a 2000 × 2000 F224HD slow-scan CCD camera (TVIPS, Gauting, Germany) at a magnification of 65,000× (0.37 nm pixel^− 1). The lengths of nonoverlapping well-shadowed molecules were measured as described by Burgess et al.[47]
# [2] = Turbidity of M200 filaments; format: physicochemical
# Experimental: Absorption spectra were recorded using a Cary 50 spectrophotometer (Varian Ltd., Walton on Thames, UK). Protein concentrations were calculated from their absorbance at 280 nm, using molar coefficients of 2980 M^− 1 cm^− 1 (M200 and S100A4) and 1490 M^− 1 cm^− 1 (M111), based on their tyrosine content (two residues per chain and one residue per chain, respectively). Myosin fragments were measured in 0.5 M NaCl buffer, and care was taken to correct for the small contribution from turbidity. Protein concentrations are stated in terms of their monomeric polypeptide chain concentration. Under the conditions used for kinetic analysis, S100A4 is predominantly a dimer,[21,25] and M200 and M111 form stable coiled coils; therefore, the molar protein concentrations are half those given in all three cases. Fluorescence emission spectra were also checked, and those preparations containing a detectable shoulder at 340 nm due to contaminating tryptophan-containing proteins were subjected to further purification. F-M16^N concentrations were based on fluorescein absorbance (ɛ490 = 78,000 M^− 1 cm^− 1). […] Quin-2 concentrations were calculated from ɛ354 = 5000 M^− 1 cm^− 1 in the absence of Ca^2+.[39] Turbidity assays used to monitor M200 filament formation and solubilisation with manual mixing were carried out using a 10-mm pathlength and a 0.1-ml microcuvette (105.250-QS; Hellma, Southend on Sea, UK) at a wavelength of 300 nm. For determination of the free Ca^2+ concentration, Fura-2 fluorescence excitation spectra were measured in the same cuvette using the 2-mm path for excitation to minimise inner filter effects. […]
# y = m2*(1-((m0^m4)/(m0^ m4+m...
# Fig. S5. (a) Turbidity of the M200 fragment (5
# M) as a function of [NaCl]. (b) Determination of the critical concentration of M200 in 100 mM NaCl, 10 mM Hepes, 0.1 mM Ca2+ at pH 7.5 and 20 °C. Aliquots of 1 or […]
# l of M200 were added to 1 ml buffer and the turbidity reading determined over a 30 s period. A linear fit to the data obtained above 0.3
# M indicated a critical concentration of 0.1 […]
# [3] = molecular target: T1, S100A4 (Homo sapiens, UniProt P26447); assay: Competition of M32/M16^N with M200 for S100A4 (turbidity); format: biochemical; conditions: turbidity competition
# T1 construct: We used full-length S100A4 for this analysis; made in house; host or cells: Escherichia coli BL21(DE3)
# Experimental: Fig. 9 Dissociation of M200 filaments by S100A4. (a) Initially, M200 was added (i) from a concentrated stock in 0.5 M NaCl to give a final concentration of 5 μM M200 (with respect to the polypeptide chain) in 100 mM NaCl, 10 mM Hepes, and 0.1 mM Ca^2+ at pH 7.5 and 20 °C. A biphasic rise in turbidity was recorded for 200 s (continuous line). Then 10 μM S100A4 (with respect to monomer concentration) was added (ii), followed by 0.2 mM EGTA (iii) and 1 mM Ca^2+ (iv). […] (b) M200 was diluted (i) into 100 mM NaCl to form filaments as in (a), then 5 μM S100A4 was added (ii), causing a 54% drop in turbidity. A further 5 μM S100A4 (iii) caused turbidity to fall to almost zero. (c) Stopped-flow records monitoring the dissociation of 5 μM M200 filaments on jumping [NaCl] from 100 mM to 120 mM NaCl. Other components of the buffer were 20 mM Hepes, 1 mM Mg^2+, and 100 μM Ca^2+ at pH 7.5 and 20 °C. […] In the presence of 20 μM S100A4 (lower trace), the turbidity decreased by 87% with a rate constant of 0.2 s^− 1.
# Further information on Scheme 2 was obtained from competition assays. […] An independent estimate of K5 based on the Ca^2+ dependence of the turbidity assay yielded a value of 0.003 μM (see Supplementary Data).
# The decrease in fluorescence, […]
# that F-M16N binding was slightly faster. […]
# A second estimate was calculated from the apparent Ca2+ binding constant observed in the turbidity assay […]
# T1 sequence (P26447 whole entry): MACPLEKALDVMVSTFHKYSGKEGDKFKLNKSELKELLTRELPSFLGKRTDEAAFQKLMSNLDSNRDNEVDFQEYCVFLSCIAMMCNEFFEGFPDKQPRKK
molecule,measurement,setting,value
B1,filamentous bundle width,[1]; 0.1 M Na-acetate,~100 nm
same,individual strand width,[1]; 0.1 M Na-acetate,about 10 nm
same,mean length of coiled coil,"[1]; metal shadowed, 0.5 M ammonium acetate, mean ± SD, n = 132",26.4 ± 2.03 nm
same,NaCl midpoint of turbidity transition,[2]; 5 μM M200,about 120 mM NaCl
same,intercept (critical concentration) from 2.5-5 μM data only,[2]; 100 mM NaCl,0.49 µM
same,critical concentration,"[2]; 100 mM NaCl, 10 mM Hepes, 0.1 mM Ca^2+, pH 7.5, 20 °C",~0.1 ± 0.04 µM and < 0.2 µM
same,critical concentration (supplement),"[2]; 100 mM NaCl, 10 mM Hepes, 0.1 mM Ca^2+, pH 7.5, 20 °C, fit above 0.3 μM",0.1 µM
same,binding relative to M32,[3],3 orders of magnitude tighter than M32
